Changes are numbered by the printed parent chain.

Series [1] addresses T1, Lambda Int-h (SynInt-h) E174K (Bacteriophage lambda) (UniProt P03700).
T1 sequence: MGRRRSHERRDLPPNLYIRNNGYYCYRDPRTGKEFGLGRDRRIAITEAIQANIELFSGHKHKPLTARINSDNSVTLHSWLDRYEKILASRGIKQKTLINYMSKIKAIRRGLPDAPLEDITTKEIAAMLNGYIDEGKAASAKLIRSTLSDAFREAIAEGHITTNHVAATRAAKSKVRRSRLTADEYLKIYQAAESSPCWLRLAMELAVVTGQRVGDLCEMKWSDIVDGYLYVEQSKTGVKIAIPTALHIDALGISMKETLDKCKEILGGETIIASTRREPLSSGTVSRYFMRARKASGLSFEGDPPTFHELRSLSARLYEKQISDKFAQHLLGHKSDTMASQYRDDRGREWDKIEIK
The series is described as follows: cell_activity. Particulars: attP x attB without IHF, maize BMS cells.

Series [2] addresses T2, Lambda Int-h/218 E174K,E218K (Bacteriophage lambda) (UniProt P03700).
T2 sequence: T1 sequence with E218K
The series is described as follows: cell_activity. Particulars: attP x attB without IHF, maize BMS cells.

In the next series the target is T3, Lambda Int-h (SynInt-h) (Bacteriophage lambda, UniProt P03700 SEQ:1-356, E174K).
T3 sequence: T1 sequence
The series is described as follows: cell_activity; attB x attP without IHF, maize BMS cells. Particulars: chain copies: 4. How it is done:
(§1) Bombarded BMS cells are incubated in the dark at 28° C. for 48 hours. After incubation, the cells are assayed for luciferase expression levels.

The next series has as its target T4, Lambda Int-h/218 (Bacteriophage lambda, UniProt P03700 SEQ:1-356, E174K,E218K).
T4 sequence: T1 sequence with E218K
The series is described as above. As to conditions: chain copies: 4. The procedure: as §1

In the case of “TCTGTTACAGGTCACTAATACCATCTAAGTAGTTGATTCATAGTGACTGCATATGTTGTGTTTTACAGTATTATGTAGTCTGTTTTTTATGCAAAATCTAATTTAATATATTGATATTTATATCATTTTACGTTTCTCGTTCAGCTTTTTTATACTAAGTTGGCATTATAAAAAAGCATTGCTTATCAATTTGTTGCAACGAACAGGTCACTATCAGTCAAAATAAAATCATTATTTGATTTC (double strand) [attP]”, the activity (fold luciferase over substrate alone) in series [1] was 15; in series [2], 49.

B1: attB (dsDNA)
DNA 1: TGAAGCCTGCTTTTTTATACTAACTTGAGCG
DNA 2: CGCTCAAGTTAGTATAAAAAAGCAGGCTTCA
For the molecule B1, the activity with Lambda Int-h (SynInt-h) was 15 fold luciferase over substrate alone; in the series with Lambda Int-h/218, 49 fold luciferase over substrate alone.

Source of the values: patent publication US20030226164, “Lambda integrase mediated recombination in plants” (Syngenta Participations AG, published 2003).
